According to the supplement of paper PMC6757056:
± gives the standard deviation of the averaged measurements.

B1: library; a variant is named by its letters at N, in order (parent)
chain: GCUGUCACCGGUGUAUUACCCUAGUGGUCGACCGGUCUGAUGAGUCUNNNNNNAGACGAAACAGC

Experiments:
hypoxanthine [1] = variants of: B1; assay: normalized RNA/DNA level with ligand (relative to sTRSVctl = 100) (log10 (% of sTRSVctl)); ligand: hypoxanthine (xanthine aptamer); higher = less ribozyme self-cleavage, higher mRNA level; settings: ligand concentration (+) RNA-Seq: 5 mM, HEK293T, reporter: mCherry (pCS4076), ligand present: yes
Outline: (§1)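 For each 6-well well, 4 µg of library plasmid encoding mCherry-linked ribozyme switches, or eGFP-linked ones in some ligand experiments, was transfected into HEK293T. Any ligand was added 1 h before transfection, and RNA was extracted with EDTA 72 h after it, then reverse-transcribed, amplified, barcoded and sequenced. RNA level was obtained by dividing RNA reads by DNA reads, normalizing to a spiked-in non-cleaving sequence or to the top sequences, then scaling and log-transforming. The top set was 25 sequences, scaling was ×100 with log10, and ≥100 DNA reads were required.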

hypoxanthine [2] = variants of: B1; assay: normalized RNA/DNA level without ligand (relative to sTRSVctl = 100) (log10 (% of sTRSVctl)); ligand: hypoxanthine (xanthine aptamer); higher = less ribozyme self-cleavage, higher mRNA level; settings: HEK293T, reporter: mCherry (pCS4076), ligand present: no
Outline: as §1

GCUGUCACCGGUGUAUUACCCUAGUGGUCGACCGGUCUGAUGAGUCUGACUGCAGACGAAACAGC [GACUGC]
normalized RNA/DNA level with ligand (log10) (hypoxanthine [1]): 1.905 ± 0.01
normalized RNA/DNA level without ligand (log10) (hypoxanthine [2]): 1.66 ± 0.052

GCUGUCACCGGUGUAUUACCCUAGUGGUCGACCGGUCUGAUGAGUCUGACUGUAGACGAAACAGC [GACUGU]
normalized RNA/DNA level with ligand (log10) (hypoxanthine [1]): 1.89 ± 0.033
normalized RNA/DNA level without ligand (log10) (hypoxanthine [2]): 1.8123 ± 0.00033

GCUGUCACCGGUGUAUUACCCUAGUGGUCGACCGGUCUGAUGAGUCUUACUUAAGACGAAACAGC [UACUUA]
normalized RNA/DNA level with ligand (log10) (hypoxanthine [1]): 1.95 ± 0.026
normalized RNA/DNA level without ligand (log10) (hypoxanthine [2]): 1.88 ± 0.033

GCUGUCACCGGUGUAUUACCCUAGUGGUCGACCGGUCUGAUGAGUCUCACUCGAGACGAAACAGC [CACUCG]
normalized RNA/DNA level with ligand (log10) (hypoxanthine [1]): 1.99 ± 0.066
normalized RNA/DNA level without ligand (log10) (hypoxanthine [2]): 1.92 ± 0.062

GCUGUCACCGGUGUAUUACCCUAGUGGUCGACCGGUCUGAUGAGUCUCACUCUAGACGAAACAGC [CACUCU]
normalized RNA/DNA level with ligand (log10) (hypoxanthine [1]): 1.963 ± 0.0079
normalized RNA/DNA level without ligand (log10) (hypoxanthine [2]): 1.91 ± 0.026

GCUGUCACCGGUGUAUUACCCUAGUGGUCGACCGGUCUGAUGAGUCUUACUCCAGACGAAACAGC [UACUCC]
normalized RNA/DNA level with ligand (log10) (hypoxanthine [1]): 2 ± 0.058
normalized RNA/DNA level without ligand (log10) (hypoxanthine [2]): 1.964 ± 0.011

GCUGUCACCGGUGUAUUACCCUAGUGGUCGACCGGUCUGAUGAGUCUUACUCUAGACGAAACAGC [UACUCU]
normalized RNA/DNA level with ligand (log10) (hypoxanthine [1]): 1.915 ± 0.0075
normalized RNA/DNA level without ligand (log10) (hypoxanthine [2]): 1.91 ± 0.026

GCUGUCACCGGUGUAUUACCCUAGUGGUCGACCGGUCUGAUGAGUCUUACUCGAGACGAAACAGC [UACUCG]
normalized RNA/DNA level with ligand (log10) (hypoxanthine [1]): 1.929 ± 0.009
normalized RNA/DNA level without ligand (log10) (hypoxanthine [2]): 1.72 ± 0.072

GCUGUCACCGGUGUAUUACCCUAGUGGUCGACCGGUCUGAUGAGUCUCACUGAAGACGAAACAGC [CACUGA]
normalized RNA/DNA level with ligand (log10) (hypoxanthine [1]): 1.95 ± 0.049
normalized RNA/DNA level without ligand (log10) (hypoxanthine [2]): 1.83 ± 0.022

GCUGUCACCGGUGUAUUACCCUAGUGGUCGACCGGUCUGAUGAGUCUCACUGUAGACGAAACAGC [CACUGU]
normalized RNA/DNA level with ligand (log10) (hypoxanthine [1]): 2 ± 0.021
normalized RNA/DNA level without ligand (log10) (hypoxanthine [2]): 1.97 ± 0.022

GCUGUCACCGGUGUAUUACCCUAGUGGUCGACCGGUCUGAUGAGUCUCACUGCAGACGAAACAGC [CACUGC]
normalized RNA/DNA level with ligand (log10) (hypoxanthine [1]): 1.96 ± 0.037
normalized RNA/DNA level without ligand (log10) (hypoxanthine [2]): 1.909 ± 0.0035

GCUGUCACCGGUGUAUUACCCUAGUGGUCGACCGGUCUGAUGAGUCUUACUGAAGACGAAACAGC [UACUGA]
normalized RNA/DNA level with ligand (log10) (hypoxanthine [1]): 1.95 ± 0.019
normalized RNA/DNA level without ligand (log10) (hypoxanthine [2]): 1.74 ± 0.02

GCUGUCACCGGUGUAUUACCCUAGUGGUCGACCGGUCUGAUGAGUCUUACUGGAGACGAAACAGC [UACUGG]
normalized RNA/DNA level with ligand (log10) (hypoxanthine [1]): 1.884 ± 0.015
normalized RNA/DNA level without ligand (log10) (hypoxanthine [2]): 1.491 ± 0.0069

GCUGUCACCGGUGUAUUACCCUAGUGGUCGACCGGUCUGAUGAGUCUUACUGCAGACGAAACAGC [UACUGC]
normalized RNA/DNA level with ligand (log10) (hypoxanthine [1]): 1.97 ± 0.072
normalized RNA/DNA level without ligand (log10) (hypoxanthine [2]): 1.846 ± 0.0079

GCUGUCACCGGUGUAUUACCCUAGUGGUCGACCGGUCUGAUGAGUCUAACUUCAGACGAAACAGC [AACUUC]
normalized RNA/DNA level with ligand (log10) (hypoxanthine [1]): 1.96 ± 0.023
normalized RNA/DNA level without ligand (log10) (hypoxanthine [2]): 1.96 ± 0.023

GCUGUCACCGGUGUAUUACCCUAGUGGUCGACCGGUCUGAUGAGUCUGACUUCAGACGAAACAGC [GACUUC]
normalized RNA/DNA level with ligand (log10) (hypoxanthine [1]): 1.9476 ± 0.0019
normalized RNA/DNA level without ligand (log10) (hypoxanthine [2]): 1.98 ± 0.098

GCUGUCACCGGUGUAUUACCCUAGUGGUCGACCGGUCUGAUGAGUCUGACUUAAGACGAAACAGC [GACUUA]
normalized RNA/DNA level with ligand (log10) (hypoxanthine [1]): 1.88 ± 0.0036
normalized RNA/DNA level without ligand (log10) (hypoxanthine [2]): 1.84 ± 0.023

GCUGUCACCGGUGUAUUACCCUAGUGGUCGACCGGUCUGAUGAGUCUAACUCUAGACGAAACAGC [AACUCU]
normalized RNA/DNA level with ligand (log10) (hypoxanthine [1]): 1.9 ± 0.039
normalized RNA/DNA level without ligand (log10) (hypoxanthine [2]): 1.898 ± 0.015

GCUGUCACCGGUGUAUUACCCUAGUGGUCGACCGGUCUGAUGAGUCUGACUCUAGACGAAACAGC [GACUCU]
normalized RNA/DNA level with ligand (log10) (hypoxanthine [1]): 1.94 ± 0.092
normalized RNA/DNA level without ligand (log10) (hypoxanthine [2]): 1.93 ± 0.029

GCUGUCACCGGUGUAUUACCCUAGUGGUCGACCGGUCUGAUGAGUCUGACUCCAGACGAAACAGC [GACUCC]
normalized RNA/DNA level with ligand (log10) (hypoxanthine [1]): 1.989 ± 0.019
normalized RNA/DNA level without ligand (log10) (hypoxanthine [2]): 1.96 ± 0.04

GCUGUCACCGGUGUAUUACCCUAGUGGUCGACCGGUCUGAUGAGUCUCACUUAAGACGAAACAGC [CACUUA]
normalized RNA/DNA level with ligand (log10) (hypoxanthine [1]): 1.87 ± 0.057
normalized RNA/DNA level without ligand (log10) (hypoxanthine [2]): 1.779 ± 0.0095
